From patent US20230136301A1, “Corticosteriod Reduction in Treatment with Anti-CD38 Antibody” (Janssen Biotech, Inc., priority 2021, published 2023)
Values joined by “and” are separate entries in the source; they are usually repeats but may differ in a detail not shown here. Identical values can stand only once.

Tested on: patients with RRMM
Assay: PAVO Part 3: treatment-emergent adverse events with DARA SC and corticosteroid tapering

DARA SC: 1,800 mg daratumumab co-formulated with 30,000 U rHuPH20 (2,000 U/mL, 15 mL), manual subcutaneous injection
Vomiting, TEAE (2-week taper n=15): 2 (13.3%) n (%) | Grade 5 TEAEs (2-week taper, general physical health deterioration): 1 (6.7%) n (%) | Grade ≥3 TEAEs, participants (3-week taper): 60% | Nausea, participants (3-week taper): 53% | Nervous system disorders (3-week taper): 46.7% | Patients who died due to complications from DLBCL (3-week taper): One | TEAEs with an outcome of death (3-week taper): No deaths | Anemia, any grade TEAE (3-week taper n=15): 1 (6.7) n (%) and 1 (6.7%) n (%) | Anemia, grade ≥3 TEAE (3-week taper n=15): 1 (6.7) n (%) and 1 (6.7%) n (%) | Any TEAE (3-week taper n=15): 15 (100)^ n (%) and 15 (100.0%) n (%) | Any grade ≥3 TEAE (3-week taper n=15): 9 (60.0) n (%) and 9 (60.0%) n (%) | Arthralgia, any grade TEAE (3-week taper n=15): 3 (20.0) n (%) and 3 (20.0%) n (%) | Asthenia, any grade TEAE (3-week taper n=15): 1 (6.7) n (%) and 1 (6.7%) n (%) | Back pain, TEAE (3-week taper n=15): 1 (6.7%) n (%) | Blood and lymphatic system disorders (SOC), TEAE (3-week taper n=15): 4 (26.7%) n (%) | Blood and lymphatic system disorders (SOC), grade 3 or higher TEAE (3-week taper n=15): 3 (20.0%) n (%) | Bone pain, TEAE (3-week taper n=15): 2 (13.3%) n (%) | Bone pain, grade ≥3 TEAE (3-week taper n=15): 1 (6.7) n (%) and 1 (6.7%) n (%) | Chills, TEAE (3-week taper n=15): 2 (13.3%) n (%) | Constipation, TEAE (3-week taper n=15): 2 (13.3%) n (%) | Cough, any grade TEAE (3-week taper n=15): 3 (20.0) n (%) and 3 (20.0%) n (%) | Decreased appetite, TEAE (3-week taper n=15): 3 (20.0%) n (%) | Diarrhea, any grade TEAE (3-week taper n=15): 4 (26.7) n (%) and 4 (26.7%) n (%) | Dizziness, any grade TEAE (3-week taper n=15): 4 (26.7) n (%) and 4 (26.7%) n (%) | Erythema, any grade TEAE (3-week taper n=15): 2 (13.3) n (%) and 2 (13.3%) n (%) | Fatigue, any grade TEAE (3-week taper n=15): 4 (26.7) n (%) and 4 (26.7%) n (%) | Gastrointestinal disorders (SOC), TEAE (3-week taper n=15): 9 (60.0%) n (%) | General disorders and administration site conditions (SOC), TEAE (3-week taper n=15): 11 (73.3%) n (%) | Headache, any grade TEAE (3-week taper n=15): 5 (33.3) n (%) and 5 (33.3%) n (%) | Lymphopenia, grade ≥3 TEAE (3-week taper n=15): 2 (13.3%) n (%) and 2 (13.3) n (%) | Metabolism and nutrition disorders (SOC), TEAE (3-week taper n=15): 7 (46.7%) n (%) | Muscle spasms, any grade TEAE (3-week taper n=15): 1 (6.7) n (%) | Musculoskeletal and connective tissue disorders (SOC), TEAE (3-week taper n=15): 6 (40.0%) n (%) | Musculoskeletal and connective tissue disorders (SOC), grade 3 or higher TEAE (3-week taper n=15): 2 (13.3%) n (%) | Nasopharyngitis, any grade TEAE (3-week taper n=15): 5 (33.3) n (%) and 5 (33.3%) n (%) | Nausea, any grade TEAE (3-week taper n=15): 8 (53.5%) n (%) and 8 (53.3%) n (%) and 8 (53.3) n (%) | Nervous system disorders (SOC), TEAE (3-week taper n=15): 7 (46.7%) n (%) | Neutropenia, grade ≥3 TEAE (3-week taper n=15): 0 n (%) | Oropharyngeal pain, TEAE (3-week taper n=15): 2 (13.3%) n (%) | Pain in extremity, any grade TEAE (3-week taper n=15): 4 (26.7) n (%) and 4 (26.7%) n (%) | Patients with a serious TEAE (3-week taper n=15): 6 (40.0%) n (%) | Peripheral edema, any grade TEAE (3-week taper n=15): 1 (6.7) n (%) and 1 (6.7%) n (%) | Pyrexia, any grade TEAE (3-week taper n=15): 4 (26.7) n (%) and 4 (26.7%) n (%) | Respiratory, thoracic and mediastinal disorders (SOC), TEAE (3-week taper n=15): 6 (40.0%) n (%) | Skin and subcutaneous tissue disorders (SOC), TEAE (3-week taper n=15): 6 (40.0%) n (%) | Vomiting, TEAE (3-week taper n=15): 2 (13.3%) n (%) | Anemia, TEAE of Grade >3 (PAVO Part 3): 9.5% | Serious TEAEs in SOC General disorders and administration site conditions (PAVO Part 3): 4.8% | TEAEs in SOC General disorders and administration site conditions (PAVO Part 3): 71.4% | Anemia, any grade TEAE (Total n=42): 7 (16.7) n (%) and 7 (16.7%) n (%) | Anemia, grade ≥3 TEAE (Total n=42): 4 (9.5) n (%) and 4 (9.5%) n (%) | Any grade ≥3 TEAE (Total n=42): 21 (50.0%) n (%) and 21 (50.0) n (%) | Arthralgia, any grade TEAE (Total n=42): 10 (23.8) n (%) and 10 (23.8%) n (%) | Asthenia, any grade TEAE (Total n=42): 7 (16.7) n (%) and 7 (16.7%) n (%) | Back pain, TEAE (Total n=42): 6 (14.3%) n (%) | Blood and lymphatic system disorders (SOC), TEAE (Total n=42): 11 (26.2%) n (%) | Blood and lymphatic system disorders (SOC), grade 3 or higher TEAE (Total n=42): 8 (19.0%) n (%) | Bone pain, TEAE (Total n=42): 7 (16.7%) n (%) | Bone pain, grade ≥3 TEAE (Total n=42): 3 (7.1) n (%) and 3 (7.1%) n (%) | Chills, TEAE (Total n=42): 5 (11.9%) n (%) | Constipation, TEAE (Total n=42): 7 (16.7%) n (%) | Cough, any grade TEAE (Total n=42): 7 (16.7) n (%) and 7 (16.7%) n (%) | Decreased appetite, TEAE (Total n=42): 5 (11.9%) n (%) | Diarrhea, any grade TEAE (Total n=42): 11 (26.2) n (%) and 11 (26.2%) n (%) | Dizziness, any grade TEAE (Total n=42): 5 (11.9) n (%) and 5 (11.9%) n (%) | Erythema, any grade TEAE (Total n=42): 6 (14.3) n (%) and 6 (14.3%) n (%) | Fatigue, any grade TEAE (Total n=42): 9 (21.4) n (%) and 9 (21.4%) n (%) | Gastrointestinal disorders (SOC), TEAE (Total n=42): 24 (57.1%) n (%) | General disorders and administration site conditions (SOC), TEAE (Total n=42): 30 (71.4%) n (%) | Headache, any grade TEAE (Total n=42): 7 (16.7) n (%) and 7 (16.7%) n (%) | Lymphopenia, grade ≥3 TEAE (Total n=42): 3 (7.1) n (%) and 3 (7.1%) n (%) | Metabolism and nutrition disorders (SOC), TEAE (Total n=42): 12 (28.6%) n (%) | Muscle spasms, any grade TEAE (Total n=42): 4 (9.5) n (%) | Musculoskeletal and connective tissue disorders (SOC), TEAE (Total n=42): 23 (54.8%) n (%) | Musculoskeletal and connective tissue disorders (SOC), grade 3 or higher TEAE (Total n=42): 4 (9.5%) n (%) | Nasopharyngitis, any grade TEAE (Total n=42): 11 (26.2) n (%) and 11 (26.2%) n (%) | Nausea, any grade TEAE (Total n=42): 13 (31.0) n (%) and 13 (31.0%) n (%) | Nervous system disorders (SOC), TEAE (Total n=42): 13 (31.0%) n (%) | Neutropenia, grade ≥3 TEAE (Total n=42): 3 (7.1) n (%) and 3 (7.1%) n (%) | Oropharyngeal pain, TEAE (Total n=42): 5 (11.9%) n (%) | Pain in extremity, any grade TEAE (Total n=42): 8 (19.0) n (%) and 8 (19.0%) n (%) | Patients who died during the study (Total n=42): 6 patients | Patients with a grade 3/4 TEAE (Total n=42): 18 (42.9%) n (%) | Patients with a serious TEAE (Total n=42): 16 (38.1%) n (%) | Peripheral edema, any grade TEAE (Total n=42): 5 (11.9) n (%) and 5 (11.9%) n (%) | Pyrexia, any grade TEAE (Total n=42): 9 (21.4) n (%) and 9 (21.4%) n (%) | Respiratory, thoracic and mediastinal disorders (SOC), TEAE (Total n=42): 15 (35.7%) n (%) | Skin and subcutaneous tissue disorders (SOC), TEAE (Total n=42): 11 (26.2%) n (%) | Vomiting, TEAE (Total n=42): 6 (14.3%) n (%) | Patients who died due to progressive disease (all cohorts, 1 in each cohort): 3 patients
